What was measured:
GST-AtWRKY50-C [1] = target: T1, GST-AtWRKY50-C (Arabidopsis thaliana, UniProt Q8VWQ5 86-173); assay: EMSA; 5x buffer (3 uL in 14 uL): 20% glycerol, 5 mM MgCl2, 2.5 mM EDTA, 2.5 mM DTT, 250 mM NaCl, 50 mM Tris-HCl pH 7.5, 0.25 mg/ml poly(dI-dC); 0.5 ug protein; 10 min RT, then 60 min on ice with probe; gel at 4 C; details: protein: recombinant, tags: GST (N-term), label: 32P
GST-AtWRKY50-C [2] = target: T1, GST-AtWRKY50-C; assay: EMSA; as wild type D; 5x buffer (3 uL in 14 uL): 20% glycerol, 5 mM MgCl2, 2.5 mM EDTA, 2.5 mM DTT, 250 mM NaCl, 50 mM Tris-HCl pH 7.5, 0.25 mg/ml poly(dI-dC); 0.5 ug protein; 10 min RT, then 60 min on ice with probe; gel at 4 C; details: protein: recombinant; tags: GST (N-term); label: 32P; 5' overhang 3 nt (GGG) both ends
TGA2-His [3] = target: T2, TGA2-His (Arabidopsis thaliana, UniProt P43273 1-330); assay: EMSA; shift increased by full-length AtWRKY50; 5x buffer (3 uL in 14 uL): 20% glycerol, 5 mM MgCl2, 2.5 mM EDTA, 2.5 mM DTT, 250 mM NaCl, 50 mM Tris-HCl pH 7.5, 0.25 mg/ml poly(dI-dC); 0.5 ug protein; 10 min RT, then 60 min on ice with probe; gel at 4 C; details: protein: recombinant; tags: His; chain copies: 2; label: 32P; blunt
T2 sequence: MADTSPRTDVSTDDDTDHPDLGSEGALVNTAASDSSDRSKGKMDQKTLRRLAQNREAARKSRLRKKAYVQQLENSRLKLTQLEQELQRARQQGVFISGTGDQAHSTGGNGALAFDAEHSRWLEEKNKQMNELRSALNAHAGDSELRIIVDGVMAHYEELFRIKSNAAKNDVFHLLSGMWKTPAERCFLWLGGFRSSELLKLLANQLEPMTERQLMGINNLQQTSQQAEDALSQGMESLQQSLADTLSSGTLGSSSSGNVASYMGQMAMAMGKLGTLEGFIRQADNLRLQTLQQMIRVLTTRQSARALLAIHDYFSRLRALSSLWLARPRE

TGA2-His [4] = target: T2, TGA2-His; assay: EMSA; 5x buffer (3 uL in 14 uL): 20% glycerol, 5 mM MgCl2, 2.5 mM EDTA, 2.5 mM DTT, 250 mM NaCl, 50 mM Tris-HCl pH 7.5, 0.25 mg/ml poly(dI-dC); 0.5 ug protein; 10 min RT, then 60 min on ice with probe; gel at 4 C; details: protein: recombinant; tags: His; chain copies: 2; label: 32P; blunt
GST-AtWRKY50-C [5] = target: T1, GST-AtWRKY50-C; assay: EMSA; enhanced vs fragment A; 5x buffer (3 uL in 14 uL): 20% glycerol, 5 mM MgCl2, 2.5 mM EDTA, 2.5 mM DTT, 250 mM NaCl, 50 mM Tris-HCl pH 7.5, 0.25 mg/ml poly(dI-dC); 0.5 ug protein; 10 min RT, then 60 min on ice with probe; gel at 4 C; details: protein: recombinant; tags: GST (N-term); label: 32P; 5' overhang 3 nt (GGG) both ends

T1 sequence (Q8VWQ5 86-173): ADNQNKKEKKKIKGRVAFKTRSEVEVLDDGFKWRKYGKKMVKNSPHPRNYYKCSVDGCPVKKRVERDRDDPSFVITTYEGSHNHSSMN

B1: fragment D (dsDNA)
DNA 1: GATGTGGCGGCATATATTCTTCAGGACTTTTC
DNA 2: GAAAAGTCCTGAAGAATATATGCCGCCACATC
binding result (GST-AtWRKY50-C [1]; blunt): binds

B2: Dm2 (dsDNA)
DNA 1: GGGGATGTGGCGGCATATATTCCCCAGGACTTTTC
DNA 2: GGGGAAAAGTCCTGGGGAATATATGCCGCCACATC
binding result (GST-AtWRKY50-C [2]): binds

B3: Am2 (dsDNA)
DNA 1: GGGGGTGATCTATTGACTGCCTCTCTACGTCACTA
DNA 2: GGGTAGTGACGTAGAGAGGCAGTCAATAGATCACC
binding result (GST-AtWRKY50-C [1]; 5' overhang 3 nt (GGG) both ends): no binding

B4: fragment C (dsDNA)
DNA 1: TTTTACTTACGTCATAGATGTGGCGGCATATA
DNA 2: TATATGCCGCCACATCTATGACGTAAGTAAAA
binding result (TGA2-His [3]): binds

B5: fragment A (dsDNA)
DNA 1: GGTGATCTATTGACTGTTTCTCTACGTCACTA
DNA 2: TAGTGACGTAGAGAAACAGTCAATAGATCACC
binding result (GST-AtWRKY50-C [1]; blunt): binds | binding result (TGA2-His [4]): no binding

B6: fragment B (dsDNA)
DNA 1: TTTCTCTACGTCACTATTTTACTTACGTCATA
DNA 2: TATGACGTAAGTAAAATAGTGACGTAGAGAAA
binding result (TGA2-His [3]): binds

B7: Am1 (dsDNA)
DNA 1: GGGGGTGATCTATTGACTTTTCTCTACGTCACTAT
DNA 2: GGGATAGTGACGTAGAGAAAAGTCAATAGATCACC
binding result (GST-AtWRKY50-C [5]): binds

From publication PMC6053526, “Arabidopsis WRKY50 and TGA Transcription Factors Synergistically Activate Expression of PR1”
